Experiments:
[1] = molecular target: mKv1.3 channel stably expressed in mouse L929 fibroblasts (mouse, UniProt P16390 1-528); assay: cell-based or functional assay
[2] = molecular target: Kv1.3 potassium channel (species not stated for this experiment); assay: cell-based or functional assay

mKv1.3 channel stably expressed in mouse L929 fibroblasts, sequence (P16390 whole entry): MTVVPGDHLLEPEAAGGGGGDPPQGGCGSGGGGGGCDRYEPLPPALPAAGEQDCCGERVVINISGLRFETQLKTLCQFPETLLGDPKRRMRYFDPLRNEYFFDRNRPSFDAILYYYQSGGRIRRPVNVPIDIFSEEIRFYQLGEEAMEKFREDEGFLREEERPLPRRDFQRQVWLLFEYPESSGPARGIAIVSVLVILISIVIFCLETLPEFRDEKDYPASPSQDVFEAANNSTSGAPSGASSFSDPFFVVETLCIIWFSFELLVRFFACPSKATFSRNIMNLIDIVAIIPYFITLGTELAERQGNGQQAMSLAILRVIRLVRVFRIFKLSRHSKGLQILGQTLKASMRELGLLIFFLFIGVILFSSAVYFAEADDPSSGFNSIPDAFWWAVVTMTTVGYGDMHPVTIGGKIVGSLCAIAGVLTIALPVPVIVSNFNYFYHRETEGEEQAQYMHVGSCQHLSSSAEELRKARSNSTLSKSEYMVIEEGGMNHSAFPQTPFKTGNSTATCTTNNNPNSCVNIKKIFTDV

Question: Which “IC50 of block of mKv1.3 currents (whole-cell patch-clamp, L929 cells)” value [1] does the source give for RSCIDTIPKSRCTAFKCKHSIKYRLSFCRKTCGTCA (3 disulfide bonds (oxidatively folded synthetic peptide)) [synthetic ShK-235] here?
Answer: 69.3 pM

Question: And the “IC50 of block of Kv1.3 channel function (whole-cell patch-clamp)” value [2]?
Answer: 62 pM
